# Target: HLA-DRB1*0101 (human)
# Test: competition binding
# Details: modification not given
row,Binder,IC50
1,HRVDLGTLRGYYNQS [p13*],0.089 µM
2,LTLRWEPSSQPTIPI [p51*],0.525 µM
3,IAVGYVDDTQFVRFD [p5],2.77 µM
4,YAYDGKDYIALKEDL [p24],0.035 µM
5,RSWTAADMAAQTTKH [p28],0.067 µM
6,MRYFFTSVSRPGRGE [p2*],0.002 µM

# More lines, now with the values ahead:
row,IC50,Binder
1,0.009 µM,CDVGSDWRFLRGYHQ [p19]
2,0.035 µM,HTVQRMYGCDVGSDW [p17*]
3,21.6 µM,RKVKAHSQTHRVDLG [p12]
4,0.497 µM,EGLPKPLTLRWEPSS [p49]
5,> 100 µM,LTWQRDGEDQTQDTE [p43]
6,0.406 µM,HQYAYDGKDYIALKE [p23]
7,0.748 µM,PRFIAVGYVDDTQFV [p4]
8,9.49 µM,RGYHQYAYDGKDYIA [p22]

# Target: HLA-DRB1*0301 (human)
# Test: competition binding
# Details: modification not given
row,Binder,IC50
1,HRVDLGTLRGYYNQS [p13*],> 100 µM
2,LTLRWEPSSQPTIPI [p51*],> 100 µM
3,IAVGYVDDTQFVRFD [p5],0.316 µM
4,YAYDGKDYIALKEDL [p24],> 100 µM
5,RSWTAADMAAQTTKH [p28],> 100 µM
6,MRYFFTSVSRPGRGE [p2*],2.84 µM

# Second part, the binder after the results:
row,IC50,Binder
1,1.5 µM,CDVGSDWRFLRGYHQ [p19]
2,> 100 µM,RGYYNQSEAGSHTVQ [p16*]
3,5.61 µM,HTVQRMYGCDVGSDW [p17*]
4,> 100 µM,RKVKAHSQTHRVDLG [p12]
5,> 100 µM,EGLPKPLTLRWEPSS [p49]
6,97.5 µM,LTWQRDGEDQTQDTE [p43]
7,52 µM,HQYAYDGKDYIALKE [p23]
8,12 µM,PRFIAVGYVDDTQFV [p4]
9,8.48 µM,RGYHQYAYDGKDYIA [p22]

# Target: HLA-DRB1*0401 (human)
# Test: competition binding
# Details: modification not given
row,Binder,IC50
1,HRVDLGTLRGYYNQS [p13*],4.04 µM
2,LTLRWEPSSQPTIPI [p51*],0.497 µM
3,IAVGYVDDTQFVRFD [p5],31 µM
4,YAYDGKDYIALKEDL [p24],3.87 µM
5,RSWTAADMAAQTTKH [p28],1.53 µM

# Results, then the binder that gave them:
row,IC50,Binder
1,0.543 µM,CDVGSDWRFLRGYHQ [p19]
2,0.494 µM,RGYYNQSEAGSHTVQ [p16*]
3,2.12 µM,HTVQRMYGCDVGSDW [p17*]
4,100 µM,RKVKAHSQTHRVDLG [p12]
5,0.497 µM,EGLPKPLTLRWEPSS [p49]
6,> 100 µM,LTWQRDGEDQTQDTE [p43]
7,17.7 µM,HQYAYDGKDYIALKE [p23]
8,> 100 µM,PRFIAVGYVDDTQFV [p4]
9,81.5 µM,RGYHQYAYDGKDYIA [p22]

# Target: HLA-DRB1*0701 (human)
# Test: competition binding
# Details: modification not given
row,Binder,IC50
1,HRVDLGTLRGYYNQS [p13*],36.7 µM
2,LTLRWEPSSQPTIPI [p51*],0.072 µM
3,IAVGYVDDTQFVRFD [p5],3.1 µM
4,YAYDGKDYIALKEDL [p24],4.47 µM
5,RSWTAADMAAQTTKH [p28],12.8 µM
6,MRYFFTSVSRPGRGE [p2*],0.045 µM

# Second part, the binder after the results:
row,IC50,Binder
1,0.341 µM,CDVGSDWRFLRGYHQ [p19]
2,0.13 µM,RGYYNQSEAGSHTVQ [p16*]
3,1.59 µM,HTVQRMYGCDVGSDW [p17*]
4,0.486 µM,RKVKAHSQTHRVDLG [p12]
5,71 µM,EGLPKPLTLRWEPSS [p49]
6,> 100 µM,LTWQRDGEDQTQDTE [p43]
7,37.8 µM,HQYAYDGKDYIALKE [p23]
8,0.85 µM,PRFIAVGYVDDTQFV [p4]
9,33.4 µM,RGYHQYAYDGKDYIA [p22]

# Target: HLA-DRB1*1101 (human)
# Test: competition binding
# Details: modification not given
row,Binder,IC50
1,HRVDLGTLRGYYNQS [p13*],8.06 µM
2,LTLRWEPSSQPTIPI [p51*],> 100 µM
3,IAVGYVDDTQFVRFD [p5],9.22 µM
4,YAYDGKDYIALKEDL [p24],0.184 µM
5,RSWTAADMAAQTTKH [p28],10.5 µM
6,MRYFFTSVSRPGRGE [p2*],0.003 µM

# Results, then the binder that gave them:
row,IC50,Binder
1,0.029 µM,CDVGSDWRFLRGYHQ [p19]
2,3.18 µM,RGYYNQSEAGSHTVQ [p16*]
3,6.48 µM,HTVQRMYGCDVGSDW [p17*]
4,> 100 µM,RKVKAHSQTHRVDLG [p12]
5,2.06 µM,EGLPKPLTLRWEPSS [p49]
6,> 100 µM,LTWQRDGEDQTQDTE [p43]
7,0.684 µM,HQYAYDGKDYIALKE [p23]
8,5.48 µM,PRFIAVGYVDDTQFV [p4]
9,1.75 µM,RGYHQYAYDGKDYIA [p22]

# Target: HLA-DRB1*1301 (human)
# Test: competition binding
# Details: modification not given
row,Binder,IC50
1,HRVDLGTLRGYYNQS [p13*],> 100 µM
2,LTLRWEPSSQPTIPI [p51*],> 100 µM
3,IAVGYVDDTQFVRFD [p5],> 100 µM
4,YAYDGKDYIALKEDL [p24],> 100 µM
5,RSWTAADMAAQTTKH [p28],> 100 µM
6,MRYFFTSVSRPGRGE [p2*],0.399 µM

# The remaining lines, values ahead:
row,IC50,Binder
1,100 µM,CDVGSDWRFLRGYHQ [p19]
2,> 100 µM,RGYYNQSEAGSHTVQ [p16*]
3,> 100 µM,HTVQRMYGCDVGSDW [p17*]
4,0.385 µM,RKVKAHSQTHRVDLG [p12]
5,> 100 µM,EGLPKPLTLRWEPSS [p49]
6,> 100 µM,LTWQRDGEDQTQDTE [p43]
7,> 100 µM,HQYAYDGKDYIALKE [p23]
8,> 100 µM,PRFIAVGYVDDTQFV [p4]
9,> 100 µM,RGYHQYAYDGKDYIA [p22]

# Target: HLA-DRB1*1501 (human)
# Test: competition binding
# Details: modification not given
row,Binder,IC50
1,HRVDLGTLRGYYNQS [p13*],0.088 µM
2,LTLRWEPSSQPTIPI [p51*],2.44 µM
3,IAVGYVDDTQFVRFD [p5],2.97 µM
4,YAYDGKDYIALKEDL [p24],> 100 µM
5,RSWTAADMAAQTTKH [p28],> 100 µM
6,MRYFFTSVSRPGRGE [p2*],1.17 µM

# Further lines, results first:
row,IC50,Binder
1,0.598 µM,CDVGSDWRFLRGYHQ [p19]
2,> 100 µM,RGYYNQSEAGSHTVQ [p16*]
3,2.83 µM,HTVQRMYGCDVGSDW [p17*]
4,> 100 µM,RKVKAHSQTHRVDLG [p12]
5,50.2 µM,EGLPKPLTLRWEPSS [p49]
6,> 100 µM,LTWQRDGEDQTQDTE [p43]
7,> 100 µM,HQYAYDGKDYIALKE [p23]
8,> 100 µM,RGYHQYAYDGKDYIA [p22]

# Target: HLA-DRB3*0101 (human)
# Test: competition binding
# Details: modification not given
row,Binder,IC50
1,HRVDLGTLRGYYNQS [p13*],> 100 µM
2,LTLRWEPSSQPTIPI [p51*],29 µM
3,YAYDGKDYIALKEDL [p24],> 100 µM
4,RSWTAADMAAQTTKH [p28],1 µM
5,MRYFFTSVSRPGRGE [p2*],> 100 µM

# More lines, now with the values ahead:
row,IC50,Binder
1,> 100 µM,CDVGSDWRFLRGYHQ [p19]
2,> 100 µM,RGYYNQSEAGSHTVQ [p16*]
3,0.529 µM,HTVQRMYGCDVGSDW [p17*]
4,> 100 µM,RKVKAHSQTHRVDLG [p12]
5,4.69 µM,EGLPKPLTLRWEPSS [p49]
6,2.29 µM,HQYAYDGKDYIALKE [p23]
7,0.196 µM,PRFIAVGYVDDTQFV [p4]
8,1.28 µM,RGYHQYAYDGKDYIA [p22]

# Target: HLA-DRB4*0101 (human)
# Test: competition binding
# Details: modification not given
row,Binder,IC50
1,HRVDLGTLRGYYNQS [p13*],67.1 µM
2,LTLRWEPSSQPTIPI [p51*],26 µM
3,IAVGYVDDTQFVRFD [p5],> 100 µM
4,YAYDGKDYIALKEDL [p24],> 100 µM
5,MRYFFTSVSRPGRGE [p2*],> 100 µM

# Results, then the binder that gave them:
row,IC50,Binder
1,51.4 µM,CDVGSDWRFLRGYHQ [p19]
2,> 100 µM,RGYYNQSEAGSHTVQ [p16*]
3,2.97 µM,RKVKAHSQTHRVDLG [p12]
4,33.9 µM,EGLPKPLTLRWEPSS [p49]
5,> 100 µM,HQYAYDGKDYIALKE [p23]
6,45.7 µM,PRFIAVGYVDDTQFV [p4]
7,> 100 µM,RGYHQYAYDGKDYIA [p22]

# Target: HLA-DRB5*0101 (human)
# Test: competition binding
# Details: modification not given
row,Binder,IC50
1,HRVDLGTLRGYYNQS [p13*],12.4 µM
2,IAVGYVDDTQFVRFD [p5],0.798 µM
3,RSWTAADMAAQTTKH [p28],40.5 µM
4,MRYFFTSVSRPGRGE [p2*],0.004 µM

# Results, then the binder that gave them:
row,IC50,Binder
1,0.033 µM,CDVGSDWRFLRGYHQ [p19]
2,0.175 µM,RGYYNQSEAGSHTVQ [p16*]
3,12 µM,HTVQRMYGCDVGSDW [p17*]
4,7.98 µM,RKVKAHSQTHRVDLG [p12]
5,4.1 µM,LTWQRDGEDQTQDTE [p43]
6,1.5 µM,HQYAYDGKDYIALKE [p23]
7,0.755 µM,PRFIAVGYVDDTQFV [p4]
8,40 µM,RGYHQYAYDGKDYIA [p22]
